Data: US20190263882A1 (Scripps Research, published 2019)
Numbering of substitutions follows the chain as printed.

T1: relaxin receptor (LGR7)
T1 sequence (Q9HBX9 whole entry, species assumed, looked up): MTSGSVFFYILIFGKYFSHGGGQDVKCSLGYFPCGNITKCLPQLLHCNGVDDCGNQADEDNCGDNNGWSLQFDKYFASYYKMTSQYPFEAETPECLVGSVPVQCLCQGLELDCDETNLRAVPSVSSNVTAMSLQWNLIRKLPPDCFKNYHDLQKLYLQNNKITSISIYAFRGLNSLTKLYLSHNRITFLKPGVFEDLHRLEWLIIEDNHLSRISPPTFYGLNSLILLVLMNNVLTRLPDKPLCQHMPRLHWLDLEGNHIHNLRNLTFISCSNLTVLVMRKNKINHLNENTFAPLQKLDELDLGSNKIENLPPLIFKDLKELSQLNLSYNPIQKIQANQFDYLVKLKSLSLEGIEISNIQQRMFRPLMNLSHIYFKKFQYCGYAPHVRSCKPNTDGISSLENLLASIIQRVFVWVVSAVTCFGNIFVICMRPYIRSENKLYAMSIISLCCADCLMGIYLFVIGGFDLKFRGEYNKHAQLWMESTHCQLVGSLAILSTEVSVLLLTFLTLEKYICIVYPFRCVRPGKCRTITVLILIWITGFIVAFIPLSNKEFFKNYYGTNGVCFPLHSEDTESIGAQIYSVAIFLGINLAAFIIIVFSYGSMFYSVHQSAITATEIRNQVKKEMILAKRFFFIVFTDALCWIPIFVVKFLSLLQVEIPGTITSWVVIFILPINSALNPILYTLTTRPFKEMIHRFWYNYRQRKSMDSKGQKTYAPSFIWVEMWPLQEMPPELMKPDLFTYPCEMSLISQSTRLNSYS

B1: SCX2: palivizumab(NH2, 16GS)-relaxin2(9GS) and palivizumab L (antibody, human IgG1, kappa)
heavy: DSWMEEVIKLCGRELVRAQIAICGMSTWSGGGGSGGGGQLYSALANKCCHVGCTKRSLARFCGGGGSGGGGSGGGGSGQVTLRESGPALVKPTQTLTLTCTFSGFSLSTSGMSVGWIRQPPGKALEWLADIWWDDKKDYNPSLKSRLTISKDTSKNQVVLKVTNMDPADTATYYCARSMITNGYFDVWGAGTTVTVSSASTKGPSVFPLAPSSKSTSGGTAALGCLVKDYFPEPVTVSWNSGALTSGVHTFPAVLQSSGLYSLSSVVTVPSSSLGTQTYICNVNHKPSNTKVDKKVEPKSCDKTHTCPPCPAPPVAGPSVFLFPPKPKDTLMISRTPEVTCVVVDVSHEDPEVKFNWYVDGVEVHNAKTKPREEQYNSTYRVVSVLTVLHQDWLNGKEYKCKVSNKGLPSSIEKTISKAKGQPREPQVYTLPPSRDELTKNQVSLTCLVKGFYPSDIAVEWESNGQPENNYKTTPPVLDSDGSFFLYSKLTVDKSRWQQGNVFSCSVMHEALHNHYTQKSLSLSPGK
light: DIQMTQSPSTLSASVGDRVTITCKCQLSVGYMHWYQQKPGKAPKLLIYDTSKLASGVPSRFSGSGSGTEFTLTISSLQPDDFATYYCFQGSGYPFTFGGGTKLEIKRTVAAPSVFIFPPSDEQLKSGTASVVCLLNNFYPREAKVQWKVDNALQSGNSQESVTEQDSKDSTYSLSSTLTLSKADYEKHKVYACEVTHQGLSSPVTKSFNRGEC
B2: SCX3: palivizumab(NH3, 16GS)-relaxin2(9GS) and palivizumab L (antibody, human IgG1, kappa)
heavy: B1 heavy with N182F, Y184G
light: B1 light
B3: SCX1: palivizumab(NH1, 16GS)-relaxin2(9GS) and palivizumab L (antibody, human IgG1, kappa)
heavy: B1 heavy with G183A
light: B1 light
B4: SC3: Palivizumab (null, 16GS)-relaxin2(9GS) and Palivizumab L (antibody, human IgG1, kappa)
heavy: B1 heavy with G183W
light: B1 light

Biological target: T1, relaxin receptor (LGR7)
Test: cell-based or functional assay

In order of rising “EC50, CRE-luciferase reporter assay” value:
1. B1  0.0612 nM
2. B3  0.0691 nM
3. B2  0.129 nM

Biological target: T1, relaxin receptor (LGR7)
Test: cell-based or functional assay
Remark: another data set of the same source

In order of falling “LGR7” value:
1. B4  0.205 nM
2. B3  0.129 nM
3. B1  0.115 nM
4. B2  0.115 nM

Biological target: LGR8
Test: cell-based or functional assay

Chain of LGR8 (Q8WXD0 whole entry): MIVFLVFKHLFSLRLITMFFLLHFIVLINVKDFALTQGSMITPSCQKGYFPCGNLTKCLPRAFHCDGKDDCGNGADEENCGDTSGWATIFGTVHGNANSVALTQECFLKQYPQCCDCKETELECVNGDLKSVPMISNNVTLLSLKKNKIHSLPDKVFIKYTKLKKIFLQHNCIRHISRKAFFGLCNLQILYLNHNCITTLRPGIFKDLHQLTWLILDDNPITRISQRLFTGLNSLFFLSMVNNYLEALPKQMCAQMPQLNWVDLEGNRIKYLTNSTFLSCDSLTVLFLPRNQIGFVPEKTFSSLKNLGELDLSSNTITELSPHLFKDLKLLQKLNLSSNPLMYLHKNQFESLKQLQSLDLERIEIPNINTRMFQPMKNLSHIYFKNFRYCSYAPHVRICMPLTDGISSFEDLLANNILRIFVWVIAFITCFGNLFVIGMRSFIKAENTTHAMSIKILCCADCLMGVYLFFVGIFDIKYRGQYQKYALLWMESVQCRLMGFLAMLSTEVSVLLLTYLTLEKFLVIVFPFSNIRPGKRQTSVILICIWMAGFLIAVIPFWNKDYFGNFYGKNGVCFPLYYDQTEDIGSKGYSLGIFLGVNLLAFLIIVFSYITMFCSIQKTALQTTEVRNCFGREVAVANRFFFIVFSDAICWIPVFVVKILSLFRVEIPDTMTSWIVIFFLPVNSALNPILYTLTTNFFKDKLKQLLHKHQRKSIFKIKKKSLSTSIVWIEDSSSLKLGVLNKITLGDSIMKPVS

In order of falling “LGR8” value:
1. B2  16300 nM
2. B3  939 nM
3. B1  327 nM
4. B4  177 nM

Biological target: T2, RSV F protein (UniProt P03420 26-524)
Test: plate binding assay, RSV F protein coated, anti-human IgG (Fc specific) detection, fluorescence read at 25 min

T2 sequence (P03420 26-524): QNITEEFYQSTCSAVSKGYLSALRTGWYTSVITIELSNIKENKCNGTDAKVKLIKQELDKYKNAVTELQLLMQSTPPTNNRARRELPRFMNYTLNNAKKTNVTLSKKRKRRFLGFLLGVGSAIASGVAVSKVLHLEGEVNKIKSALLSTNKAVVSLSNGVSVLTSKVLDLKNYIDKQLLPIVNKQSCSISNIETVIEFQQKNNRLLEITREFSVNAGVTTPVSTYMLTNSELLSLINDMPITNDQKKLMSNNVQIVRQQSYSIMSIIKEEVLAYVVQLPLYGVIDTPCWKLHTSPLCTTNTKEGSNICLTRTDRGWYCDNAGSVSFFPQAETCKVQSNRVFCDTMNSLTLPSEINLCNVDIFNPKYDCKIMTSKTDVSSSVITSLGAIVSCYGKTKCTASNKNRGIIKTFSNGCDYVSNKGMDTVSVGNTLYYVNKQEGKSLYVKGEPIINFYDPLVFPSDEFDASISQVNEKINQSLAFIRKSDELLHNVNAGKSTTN

In order of rising Kd:
1. B4  0.425 nM
2. B1  14.4 nM
3. B3  112 nM
4. B2  163 nM

Biological target: T2, RSV F protein
Test: plate binding assay, RSV F protein coated, anti-human IgG (Fc specific) detection, fluorescence read at 50 min

In order of falling Kd:
1. B2  107 nM
2. B3  83.1 nM
3. B1  9.03 nM
4. B4  0.249 nM
